Test [1] deals with T1, folate receptor 1 (FOLR1) (human, UniProt P15328 25-234). Put plainly: flow cytometry binding on T47D cells. (In general: In flow cytometry, cells or beads pass a laser one at a time.)
The target in test [2] is T1, folate receptor 1 (FOLR1). Put plainly: flow cytometry binding on T47D cells. This is another data set of the same source.

Like-named read-outs stand apart in the source and are kept apart here.

Broadly, the EC50 is the concentration that produces a half-maximal response.

T1 sequence (P15328 25-234): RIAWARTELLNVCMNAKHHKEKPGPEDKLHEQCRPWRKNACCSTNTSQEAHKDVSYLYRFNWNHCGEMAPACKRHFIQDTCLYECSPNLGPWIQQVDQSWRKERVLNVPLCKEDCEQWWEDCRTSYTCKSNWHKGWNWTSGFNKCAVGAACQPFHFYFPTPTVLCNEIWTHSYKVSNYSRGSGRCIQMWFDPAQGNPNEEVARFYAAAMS

B1: huMOV19 antibody (antibody, V domains shown)
VH: QVQLVQSGAEVVKPGASVKISCKASGYTFTGYFMNWVKQSPGQSLEWIGRIHPYDGDTFYNQKFQGKATLTVDKSSNTAHMELLSLTSEDFAVYYCTRYDGSRAMDYWGQGTTVTVSS
VL: DIVLTQSPLSLAVSLGQPAIISCKASQSVSFAGTSLMHWYHQKPGQQPRLLIYRASNLEAGVPDRFSGSGSKTDFTLTISPVEAEDAATYYCQQSREYPYTFGGGTKLEIKR
In the case of B1, the EC50 in test [1] was 0.144 nM; in test [2], 0.314 nM.
